Reference: US20230349919A1 (Regeneron, published 2023)
Residue numbers refer to the chain shown, from its start.

B1: Table 1 Line # 28 antibody (SP_B_cell) (antibody, human IgG4, V domains shown)
VH: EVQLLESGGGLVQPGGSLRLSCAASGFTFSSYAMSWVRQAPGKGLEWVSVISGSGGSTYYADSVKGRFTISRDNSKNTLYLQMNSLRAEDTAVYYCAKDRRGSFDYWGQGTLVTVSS
VL: DIQMTQSPSSVSASVGDRVTITCRASQGISSWFAWYQQKPGKAPKLLIYAASSLLSGVPSRFSGSGSGTDFTLTISSLQPEDFATYYCQQANSFPFTFGPGTKVDFK
notes: Cloned with human IgG4/human Igk constants for Kd; barcode counts are of the source cell's own IgG
B2: Table 1 Line # 29 antibody (SP_B_cell) (antibody, V domains shown)
VH: EVQLLESGGGLVQPGGSLRLSCAASGFTFSSYAMSWVRQAPGKGLEWVSAISGSGGSTYYADSVKGRFTISRDNSKNTLYLQMNSLRAEDTAIYYCARYGNWNYIWGQGTLVTVSS
VL: B1 VL with F33L, L55Q, F96L, P100G, D105E, F106I
B3: Table 1 Line # 24 antibody (SP_B_cell) (antibody, human IgG4, V domains shown)
VH: EVQLVESGGDLVQPGTSLRLSCAASGFTFDDYAMHWVRQTPGQGLEWVSGINWNSGTIGYADSVKGRFTISRDNAKNSLFLQMNSLRAEDSAFYYCTKDIGGSYYASDFWGQGTLVTVSS
VL: DIQMTQSPSSLSASVGDRVTITCRASQRISTDLNWYQQKSGKAPNLLIYGASSLQSGVPSRFSGSGSGTDFILTISTLQPEDFATYYCQQSYSTPFTFGPGTKVDIK
notes: as for B1
B4: Table 1 Line # 21 antibody (SP_B_cell) (antibody, human IgG4, V domains shown)
VH: EVQLVESGGGVVRPGGSLRLSCAASGFTFDDYGMSWVRQAPGKGLEWVSGINWNGGSTGYADSVKGRFTMSRDNAKKSLYLQMNSLRAEDTAFYHCARDDSSSLYGYFQHWGQGTLVTVSS
VL: DIQMTQSPSSLSASVGDRVTITCRASQGISIYLAWYQQKPGKVPKLLIYAASTLQSGVPSRFSGSGSGTDFTLTISSLQPEDVATYYCQNYNSAPRTFGQGTKVEIK
notes: as for B1
B5: Table 1 Line # 25 antibody (SP_B_cell) (antibody, human IgG4, V domains shown)
VH: EVQLVESGGTVERPGGSLRLSCAASGFTFDDYGMSWVRQAPGKGLEWVSGTSWNGGHIGYADSVKGRFIISRDNAKNSLYLQINSLRVEDTALYYCTRDSTSSWYGVFDFWGQGTLVTVSS
VL: DIQMTQSPSSLSASVGDRVTITCRASQDISINLAWYQQKPGKTPKLLIYAAASTLQSGVPSRFSGSGSGTDFTLTISSLQPEDVATYYCQNYNSAPRTFGQGTKVEIK
notes: as for B1
B6: Table 1 Line # 26 antibody (SP_B_cell) (antibody, human IgG4, V domains shown)
VH: QVQLQQSGPGLVKPSQTLSLTCAISGDSVSSNIATWNWIRQSPSRGLECLGRTYYRSKWYSDYAVSVKSRITINPDTSKNQFSLQLNSVTPEDTAVYYCARGWNYGYYFDYWGQGTLVTVSS
VL: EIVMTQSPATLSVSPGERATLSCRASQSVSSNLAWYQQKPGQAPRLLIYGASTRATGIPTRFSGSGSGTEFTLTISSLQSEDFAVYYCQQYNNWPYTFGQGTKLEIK
notes: as for B1
B7: Table 1 Line # 32 antibody (SP_B_cell) (antibody, human IgG4, V domains shown)
VH: EVQLVESGGGLVQPGRSLRLSCAASGFTFDDYAMHWVRQAPGKGLEWVSGVNWNGVSLGYADSVKGRFTISRDNAKNSLYLQMNSLRAEDTAFYYCAKDSGSYHYYYGMDGWGQGTTVTVSS
VL: DIQMTQSPSSLSASVGDRVTITCRASQGIRNDLGWYQQKPGKDPKRLIFAATNLHGGVPSRFSGGVSGTEFTLTISSLQPEDFATYYCLQHNSYPLTFGGGTKVEIK
notes: as for B1
B8: Table 1 Line # 19 antibody (BM_Plasma_cell) (antibody, human IgG4, V domains shown)
VH: EVQLVESGGGLVQPGRSLRLSCAASGFTFDDFAMHWVRQEPGKGLEWVSGISWNGGNIGYADSVKGRFTISRDNAKNSLYLQMNSLRAEDTAFYYCAKDVSSAWYGYFDYWGQGTLVTVSS
VL: DIQMTQSPSTLSASVGDRVTITCRASQSVSSWLAWYQQKPGKAPKLLIYKASSLESGVPLRFSGSGSGTEFTLTISSLQPDDFATYYCQVYNSDSRTFGQGTKVEIK
notes: as for B1

These binders were tested against T1, human IL-4Rα (hIL-4Rα) monomeric protein (human, UniProt P24394 26-232, limits assumed) (assay: Biacore (SPR); negative log10 of Kd).
T1 construct: also called hIL-4Rα antigen; barcoded hIL-4Rα

Row | Binder | negLog10Kd
1 | B1 | 6.84
2 | B2 | 7.26
3 | B3 | 6.68
4 | B4 | 6.75
5 | B5 | 7.01
6 | B6 | 6.95
7 | B7 | 7.24
8 | B8 | 7.92

The binders below were run against T1, human IL-4Rα (hIL-4Rα) monomeric protein (assay: Biacore (SPR)).

Row | Binder | Kd [nM]
9 | B1 | 146
10 | B2 | 54.8
11 | B3 | 207
12 | B4 | 177
13 | B5 | 97.6
14 | B6 | 112
15 | B7 | 58.1
16 | B8 | 12.1

These binders were tested against T1, human IL-4Rα (hIL-4Rα) monomeric protein (assay: barcoded-antigen count on source cell (scRNA-seq)).

Row | Binder | REGN560.L15_ab_raw [counts]
17 | B1 | 9450
18 | B2 | 9190
19 | B3 | 10800
20 | B4 | 17400
21 | B5 | 10600
22 | B6 | 10400
23 | B7 | 7910
24 | B8 | 2060
